Reference: patent US20200377595A1 (Chugai, published 2020)
Where a chain is given by its changes, count along the chain named. Where “and” joins values, the source holds several entries; their conditions need not be identical. Equal values may be shown once.

B1: CE115HA340 one-arm antibody (antibody, human IgG1, kappa, L234A L235A, N297A)
VH: QVQLVESGGGLVQPGRSLRLSCAASGFTFSNAWMHWVRQAPGKGLEWVAQIKDKSNNYATYYAESVKGRFTISRDDSKNSIYLQMNSLKTEDTAVYYCRYVHYAAYYGVDAWGQGTTVTVSSASTKGPSVFPLAPSSKSTSGGTAALGCLVKDYFPEPVTVSWNSGALTSGVHTFPAVLQSSGLYSLSSVVTVPSSSLGTQTYICNVNHKPSNTKVDKKVEPKSCDKTHTCPPCPAPEAAGGPSVFLFPPKPKDTLMISRTPEVTCVVVDVSHEDPEVKFNWYVDGVEVHNAKTKPREEQYASTYRVVSVLTVLHQDWLNGKEYKCKVSNKALPAPIEKTISKAKGQPREPQVYTLPPSRCELTKNQVSLSCAVKGFYPSDIAVEWESNGQPENNYKTTPPVLDSDGSFFLVSKLTVDKSRWQQGNVFSCSVMHEALHNHYTQKSLSLSPDYKDDDDK
chain: EPKSSDKTHTCPPCPAPELLGGPSVFLFPPKPKDTLMISRTPEVTCVVVDVSHEDPEVKFNWYVDGVEVHNAKTKPREEQYNSTYRVVSVLTVLHQDWLNGKEYKCKVSNKALPAPIEKTISKAKGQPREPQVCTLPPSRDELTKNQVSLWCLVKGFYPSDIAVEWESNGQPENNYKTTPPVLDSDGSFFLYSKLTVDKSRWQQGNVFSCSVMHEALHNRYTQKSLSLSP
light: DIVMTQSPLSLPVTPGEPASISCRSSQSLVHSNRNTYLHWYQQKPGQAPRLLIYKVSNRFSGVPDRFSGSGSGTDFTLKISRVEAEDVGVYYCGQGTQVPYTFGQGTKLEIKRTVAAPSVFIFPPSDEQLKSGTASVVCLLNNFYPREAKVQWKVDNALQSGNSQESVTEQDSKDSTYSLSSTLTLSKADYEKHKVYACEVTHQGLSSPVTKSFNRGEC
notes: one-arm antibody
B2: NHS6f17 (antibody)
chain 1: QVQLVESGGGLVQPGRSLRLSCAASGFTFSNAWMHWVRQAPGKGLEWVAQIKDKSNNYATYYAESVKGRFTISRDDSKNSIYLQMNSLKTEDTAVYYCRYVHYAAWGEGVVYYGVDAWGQGTTVTVSSASTKGPSVFPLAPSSKSTSGGTAALGCLVKDYFPEPVTVSWNSGALTSGVHTFPAVLQSSGLYSLSSVVTVPSSSLGTQTYICNVNHKPSNTKVDKKVEPKSCDKTHTCPPCPAPEAAGGPSVFLFPPKPKDTLMISRTPEVTCVVVDVSHEDPEVKFNWYVDGVEVHNAKTKPREEQYASTYRVVSVLTVLHQDWLNGKEYKCKVSNKALPAPIEKTISKAKGQPREPQVYTLPPSRCELTKNQVSLSCAVKGFYPSDIAVEWESNGQPENNYKTTPPVLDSDGSFFLVSKLTVDKSRWQQGNVFSCSVMHEALHNHYTQKSLSLSPDYKDDDDK
chain 2: B1 chain
chain 3: B1 light
B3: NNS6f27 (antibody)
chain 1: B2 chain 1 with W106V, G107W, E108G, G109S, V111W
chain 2: B1 chain
chain 3: B1 light
B4: NHS6f29 (antibody)
chain 1: B2 chain 1 with W106I, G107Y, E108Y, G109P, V110T, V111N
chain 2: B1 chain
chain 3: B1 light
B5: NNS6f47 (antibody)
chain 1: B2 chain 1 with W106H, G107F, E108M, G109W, V110W, V111G
chain 2: B1 chain
chain 3: B1 light
B6: NHS6f50 (antibody)
chain 1: B2 chain 1 with W106L, G107T, E108G, V110L, V111G
chain 2: B1 chain
chain 3: B1 light
B7: NNS6f51 (antibody)
chain 1: B2 chain 1 with W106G, G107F, E108L, G109V, V110L, V111W
chain 2: B1 chain
chain 3: B1 light
B8: NHS6f52 (antibody)
chain 1: B2 chain 1 with W106Y, G107M, E108L, V110L, V111G
chain 2: B1 chain
chain 3: B1 light
B9: NNS6f54 (antibody)
chain 1: B2 chain 1 with W106F, G107E, E108W, G109V, V110G, V111W
chain 2: B1 chain
chain 3: B1 light
B10: NNS6f55 (antibody)
chain 1: B2 chain 1 with W106A, E108R, G109W, V110L, V111A
chain 2: B1 chain
chain 3: B1 light
B11: NNS6f56 (antibody)
chain 1: B2 chain 1 with W106R, G107E, E108A, G109T, V110R, V111W
chain 2: B1 chain
chain 3: B1 light
B12: NNS6f58 (antibody)
chain 1: B2 chain 1 with W106S, G107W, E108Q, G109V, V110S, V111R
chain 2: B1 chain
chain 3: B1 light
B13: NNS6f59 (antibody)
chain 1: B2 chain 1 with W106L, G107L, E108V, G109Q, V110E, V111G
chain 2: B1 chain
chain 3: B1 light
B14: NNS6f62 (antibody)
chain 1: B2 chain 1 with W106N, E108G, G109T, V110R, V111H
chain 2: B1 chain
chain 3: B1 light
B15: NNS6f63 (antibody)
chain 1: B2 chain 1 with W106G, E108G, V110W
chain 2: B1 chain
chain 3: B1 light
B16: NNS6f64 (antibody)
chain 1: B2 chain 1 with W106L, G107V, E108S, G109L, V110T
chain 2: B1 chain
chain 3: B1 light
B17: NNS6f67 (antibody)
chain 1: B2 chain 1 with W106G, G107L, E108L, G109R, V110A, V111A
chain 2: B1 chain
chain 3: B1 light
B18: NNS6f68 (antibody)
chain 1: B2 chain 1 with W106V, G107E, E108W, V110R, V111W
chain 2: B1 chain
chain 3: B1 light
B19: NNS6f71 (antibody)
chain 1: B2 chain 1 with W106G, G107W, E108V, G109L, V110G, V111S
chain 2: B1 chain
chain 3: B1 light
B20: NNS6f72 (antibody)
chain 1: B2 chain 1 with W106E, E108I, G109W, V110W, V111G
chain 2: B1 chain
chain 3: B1 light
B21: NNS6f73 (antibody)
chain 1: B2 chain 1 with G107V, E108V, V111R
chain 2: B1 chain
chain 3: B1 light

Each binder was assayed against biotinylated CD3 epsilon epitope peptide (assay: SPR, one-arm Ab).
In the case of B1, the Kd is reported as 20 nM and 27 nM. With B2 the Kd was 74 nM. B3 showed a Kd of 38 nM. In the case of B4, the Kd is reported as 90 nM. B5 showed a Kd of 31 nM. B6 showed a Kd of 71 nM. B7 gave a Kd of 31 nM. B8 showed a Kd of 52 nM. Work on B9 yielded a Kd of 29 nM. In the case of B10, the Kd is reported as 31 nM. B11 was tested, and the Kd was 21 nM. B12 was tested, and the Kd was 44 nM. In the case of B13, the Kd is reported as 200 nM. B14 was tested, and the Kd was 61 nM. Work on B15 yielded a Kd of 69 nM. Work on B16 yielded a Kd of 78 nM. For B17, the Kd was 36 nM. B18 gave a Kd of 45 nM. B19 showed a Kd of 51 nM. For B20, the Kd was 150 nM. In the case of B21, the Kd is reported as 26 nM.
